Paper PMC11782079

biological target: FaRel2-Δ166–206 (Coprobacillus sp. D7); experiment: ITC; ATfaRel2 or variant in the syringe at 200-150 uM, FaRel2 in the cell at 15-20 uM; 25 °C; 25 mM HEPES pH 7.6, 300 mM NaCl, 2 mM MgCl2, 1 mM TCEP

Substance	Kd
ATfaRel2 antitoxin (wild type) (natural protein)	3300 nM

biological target: Coprobacillus sp. D7 FaRel2 toxin, catalytically impaired Y128F variant (Coprobacillus sp. D7); experiment: not given

Substance	stoichiometry N	Kd
ATfaRel2 A50M (natural protein)	1.1	–
ATfaRel2 I45A (natural protein)	0.91	868 nM
ATfaRel2 Y54A (natural protein)	0.92	8750 nM
ATfaRel2 V43A (natural protein)	0.97	–
ATfaRel2 F59A (natural protein)	0.99	2150 nM
Coprobacillus sp. D7 ATfaRel2 antitoxin (natural protein)	1.1	–
ATfaRel2 Y51A (natural protein)	0.9	1520 nM
